From the RNAGym collection of RNA variant scans (doi:10.1021/acssynbio.7b00057)

B1: Pistol ribozyme (parent)
chain: GGGUCGUUGUUCCAUAAUCGCGUGGAUAUGGCACGCAAGUUUCUACCGGGCACCGUAAAUGUCCGACUGGAGCCGUUCGGGCGGCUAUAAACAGACCUCAGGCCCGAAGCGUGGCGGCACCUGCCGCCGGUGGUAAAAAAGAUCGGAAGAGCACACGUCU

Variants of: B1
Test: aptazyme ON/OFF ratio, guanine; higher = stronger switching; co-transcriptional cleavage with and without guanine

Variant	aptazyme ON/OFF ratio
U7A U8C G9A U11G C12U C13A	1.28
U7A U8C G9A U11G C12U C13G	1.22
U7A U8C G9A U11G C12U C13U	1.32
U7A U8C G9A U10G U11A C13A	1.04
U7A U8C G9A U10G U11A C13U	1.04
U7A U8C G9A U10G U11A C13G	1.05
U7A U8C G9A U10G U11A C12A C13G	1.11
U7A U8C G9A U10G U11A C12A C13U	1.24
U7A U8C G9A U10G U11A C12A C13A	1.19
U7A U8C G9A U11C C12G C13A	1.13
U7A U8C G9A U11C C12G C13U	1.16
U7A U8C G9A U11C C12G C13G	1.07
U7A U8C G9C U10A U11C C12A C13G	1.16
U7A U8C G9C U10A U11C C12A C13A	1.15
U7A U8C G9C U10A U11C C12A C13U	1.14
U7A U8C G9A U11C C12U C13A	1.22
U7A U8C G9A U11C C12U C13G	1.16
U7A U8C G9A U11C C12U C13U	1.19
U7A U8C G9A U11G C13G	1.31
U7A U8C G9A U11G C13A	1.27
U7A U8C G9A U11G C13U	1.22

Variant	aptazyme ON/OFF ratio
U7A U8C G9C U10A C12U C13G	1.07
U7A U8C G9C U10A C12U C13U	1.07
U7A U8C G9C U10A C12U C13A	1.05
U7A U8C G9C U10A U11A C12U	1.07
U7A U8C G9C U10A U11A C12G	1.13
U7A U8C G9C U10A U11A C12A	1.09
U7A U8C G9C U10A U11G C12A C13A	1.11
U7A U8C G9C U10A U11G C12A C13G	1.12
U7A U8C G9C U10A U11A C12U C13U	1.05
U7A U8C G9C U10A U11A C12U C13A	1.09
U7A U8C G9C U10A U11A C12U C13G	1.08
U7A U8C G9C U10A U11A C12G C13A	1.05
U7A U8C G9C U10A U11A C12G C13U	1.07
U7A U8C G9C U10A U11A C12G C13G	1.08
U7A U8C G9A U10G U11C C12A C13G	1.25
U7A U8C G9A U10G U11C C12A C13U	1.23
U7A U8C G9A U10G U11C C12A C13A	1.18
U7A U8C G9C U10A U11G C12A	1.04
U7A U8C G9C C12U C13U	1.14
U7A U8C G9C C12U C13G	1.06
U7A U8C G9C C12U C13A	1.08

Variant	aptazyme ON/OFF ratio
U7A U8C G9A U11A C12U	1.25
U7A U8C G9A U11A C12G	1.26
U7A U8C G9A U11A C12A	1.43
U7A U8C G9A U11A C12A C13G	1.09
U7A U8C G9A U11A C12A C13A	1.31
U7A U8C G9A U11A C12A C13U	1.17
U7A U8C G9A U10G U11C C12U C13U	1.16
U7A U8C G9A U10G U11C C12U C13G	1.2
U7A U8C G9A U10G U11C C12U C13A	1.16
U7A U8C G9C U10A U11C C12U C13G	1.26
U7A U8C G9C U10A U11C C12U C13A	1.05
U7A U8C G9C U10A U11C C12U C13U	1.22
U7A U8C G9A U10G U11A C12U C13G	1.14
U7A U8C G9A U10G U11A C12U C13U	1.11
U7A U8C G9A U10G U11A C12U C13A	1.19
U7A U8C G9C U10A U11A C13G	1.06
U7A U8C G9C U10A U11A C13U	1.13
U7A U8C G9C U10A U11A C13A	1.07
U7A U8C G9A U10G U11C C12A	1.19
U7A U8C G9A U10G U11C C12G	1.22
U7A U8C G9A U10G U11C C12U	1.06

Variant	aptazyme ON/OFF ratio
U7A U8C G9C C12A C13G	1.14
U7A U8C G9C C12A C13A	1.11
U7A U8C G9C C12A C13U	1.07
U7A U8C G9C C13U	1.07
U7A U8C G9C C13A	1.07
U7A U8C G9C C13G	1.06
U7A U8C G9A U11G C12G	1.24
U7A U8C G9A U11G C12U	1.79
U7A U8C G9A U11G C12A	1.11
U7A U8C G9A U11C C12U	1.14
U7A U8C G9A U11C C12A	1.21
U7A U8C G9A U11C C12G	1.24
U7A U8C G9A U11G	1.28
U7A U8C G9A U11A	1.25
U7A U8C G9A U11C	1.04
U7A U8C G9C U10A C12G C13U	1.17
U7A U8C G9C U10A C12G C13G	1.14
U7A U8C G9C U10A C12G C13A	1.1
U7A U8C G9A U10G U11A C12A	1.13
U7A U8C G9A U10G U11A C12G	1.27
